Data taken from patent US20260035450.

Biological target: T1, recombinant human ANGPTL3 (rhANGPTL3) (SEQ ID NO:1)
T1 chain: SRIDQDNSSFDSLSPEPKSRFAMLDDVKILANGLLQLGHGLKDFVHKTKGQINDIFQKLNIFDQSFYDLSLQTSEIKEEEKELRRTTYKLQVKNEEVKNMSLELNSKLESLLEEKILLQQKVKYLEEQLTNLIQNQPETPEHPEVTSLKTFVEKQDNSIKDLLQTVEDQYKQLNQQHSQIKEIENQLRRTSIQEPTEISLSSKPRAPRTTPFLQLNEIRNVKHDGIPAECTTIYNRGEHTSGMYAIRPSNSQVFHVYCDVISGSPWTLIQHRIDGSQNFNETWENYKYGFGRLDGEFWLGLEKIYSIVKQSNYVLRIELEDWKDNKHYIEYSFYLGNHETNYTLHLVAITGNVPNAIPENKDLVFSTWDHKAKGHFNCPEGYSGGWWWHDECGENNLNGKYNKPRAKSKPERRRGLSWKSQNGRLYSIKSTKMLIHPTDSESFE

B1: bovine LPL (protein)
chain: DRITGGKDFRDIESKFALRTPEDTAEDTCHLIPGVTESVANCHFNHSSKTFVVIHGWTVTGMYESWVPKLVAALYKREPDSNVIVVDWLSRAQQHYPVSAGYTKLVGQDVAKFMNWMADEFNYPLGNVHLLGYSLGAHAAGIAGSLTNKKVNRITGLDPAGPNFEYAEAPSRLSPDDADFVDVLHTFTRGSPGRSIGIQKPVGHVDIYPNGGTFQPGCNIGEALRVIAERGLGDVDQLVKCSHERSVHLFIDSLLNEENPSKAYRCNSKEAFEKGLCLSCRKNRCNNMGYEINKVRAKRSSKMYLKTRSQMPYKVFHYQVKIHFSGTESNTYTNQAFEISLYGTVAESENIPFTLPEVSTNKTYSFLLYTEVDIGELLMLKLKWISDSYFSWSNWWSSPGFDIGKIRVKAGETQKKVIFCSREKMSYLQKGKSPVIFVKCHDKSLNRKSG
  in vitro enzymatic activity of lipoprotein lipase (LPL), EnzChek Lipase substrate: The activity of bovine LPL is inhibited by addition of recombinant hANGPTL3 (rhANGPTL3)
